Measured values reported in patent US12667624B2, “GIP derivative, long-acting conjugate thereof, and pharmaceutical composition comprising same” (HANMI PHARM. CO., LTD., priority 2020, dated 2026).
Non-standard residues stand in square brackets, D forms with d. No end group written: not given here. Aib = CC(C)(N)C(=O)O

How the values were obtained:
[1] = target: T1, human GIP receptor (Homo sapiens, UniProt P48546); assay: In vitro activity of long-acting GIP conjugates: cAMP accumulation in CHO cells expressing human GIP receptor; type: cell-based; settings: relative potency from cAMP EC50, CHO cells expressing human GIP receptor; PEG-immunoglobulin Fc conjugates
T1 construct: expressed in transfected cells; host or cells: CHO (Chinese hamster ovary)
T1 sequence (P48546 22-466): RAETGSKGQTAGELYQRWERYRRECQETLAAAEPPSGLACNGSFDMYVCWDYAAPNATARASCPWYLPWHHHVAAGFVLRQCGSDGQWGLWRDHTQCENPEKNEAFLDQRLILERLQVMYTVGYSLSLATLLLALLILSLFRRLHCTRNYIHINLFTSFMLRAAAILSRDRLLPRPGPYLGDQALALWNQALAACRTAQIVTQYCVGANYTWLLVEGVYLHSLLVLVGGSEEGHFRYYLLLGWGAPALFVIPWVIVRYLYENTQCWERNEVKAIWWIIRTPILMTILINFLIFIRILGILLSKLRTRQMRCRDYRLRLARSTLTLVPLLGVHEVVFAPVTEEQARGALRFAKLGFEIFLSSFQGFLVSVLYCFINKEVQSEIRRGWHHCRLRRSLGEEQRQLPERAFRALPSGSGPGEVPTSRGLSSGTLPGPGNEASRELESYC
Procedure: To measure the activity of the long-acting GIP conjugates prepared in Example 3, a method of measuring cell activity in vitro using a cell line transformed with the GIP receptor was used in the same manner as in Example 2.
In detail, to measure the activity of the long-acting GIP derivatives in the human GIP receptors, human GIP was serially diluted from 16 nM to 0.000015 nM by 4 folds, and the long-acting GIP derivatives prepared in Example 1 were each serially diluted from 50 nM to 0.000048 nM by 4 folds. The culture medium was removed from the cultured CHO cells where the human GIP receptors were expressed, 5 μl of each of the serially diluted materials was added to the cells, and then, 5 μl of buffer containing cAMP antibody was added thereto, followed by incubation at room temperature for 15 minutes. Next, the cells were lysed by adding 10 μl of detection mix containing cell lysis buffer, and then allowed for a reaction at room temperature for 90 minutes. The cell lysate obtained by the completion of the reaction was applied to the LANCE cAMP kit (PerkinElmer, USA) to calculate the EC50 value through the accumulated cAMP to be compared with each other.

[2] = system: THP-1 cell line; assay: Expression of inflammation-related genes in LPS-treated THP-1 cell line (real-time PCR); type: cell-based, human; settings: THP-1, LPS 1 μg/mL; native GIP 10 μM, long-acting GIP derivative 1 or 10 μM; FIG. 2A
Description: To confirm the in vitro anti-inflammatory effect of the long-acting GIP derivative conjugate on vasculitis, a human monocyte/macrophage cell line, THP-1 cell line, was used. A macrophage is known to secrete cytokines and chemokines in the early stage of infection in vasculitis-infected tissue, induce the progress of inflammation by utilizing other immune cells, and form giant cells. Therefore, identification of the anti-inflammatory effect in macrophages is referred to as an appropriate in vitro system for evaluating the efficacy on vasculitis.
The THP-1 cell line was cultured in RPMI 1640 medium supplemented with 10% fetal bovine serum (FBS), 100 μg/mL of streptomycin, 100 U/mL of penicillin, and […] of β-mercaptoethanol, under conditions of a temperature of 37° C. and 5% carbon dioxide. […] For use as the long-acting GIP derivative, the long-acting GIP conjugate (SEQ ID NO: 17) prepared in Example 3 was used.
RNA was isolated from the completely treated THP-1 cell line by using the RNeasy Mini Kit (Qiagen, US), and then cDNA was synthesized by using the iScript™ cDNA Synthesis Kit (Bio-rad, U.S.). The synthesized cDNA was referred to confirm the expression levels of inflammation-related genes by using the QuantStudio 6 Flex Real-Time PCR System (Applied Biosystems, U.S.). Here, the Delta Ct method was used, and beta-actin was used as a housekeeping gene. […]

[3] = system: THP-1 cell line; assay: TNF-α concentration in medium of LPS-treated THP-1 cell line (ELISA); type: cell-based, human; settings: THP-1, LPS 0.1 pg/mL; native GIP 1 μM, long-acting GIP derivative 0.1 μM or 1 μM; FIG. 2B
Description: Here, the medium was quantified by using Human TNF alpha ELISA Kit (Abcam, US).

Substance | In vitro activity of long-acting GIP derivative compared to human native GIP in human GIP receptor (%) [1] | expression levels of inflammation-related genes IL-6, IL-12, IL-1β and TNF-α [2] | concentration of TNF-α in the medium [3]
YAibEGT FISDYSIALEKQAQQDFVNWLLAGGPSSGAPPPSC (Y[Aib]EGTFISDYSIALEKQAQQDFVNWLLAGGPSSGAPPPSC) [SEQ ID NO: 17, GIP derivative peptide] | 153.2% |  | 
YAibEGT FISDYSIAMDAIAQQDFVNWLLAQKGKKNDWKHNITQC (Y[Aib]EGTFISDYSIAMDAIAQQDFVNWLLAQKGKKNDWKHNITQC) [SEQ ID NO: 11, GIP derivative peptide] | 84.8% |  | 
YAibEGT FISDY SIAibLD KQAAAib EFVNW LLAibGG PSSGA PPPSC (Y[Aib]EGTFISDYSI[Aib]LDKQAA[Aib]EFVNWLL[Aib]GGPSSGAPPPSC) [SEQ ID NO: 21, GIP derivative peptide] | 148.5% |  | 
YAibEGT FISDY SIAibLD KQAAAib EFVNW LLAibGH PSSGA PPPSC (Y[Aib]EGTFISDYSI[Aib]LDKQAA[Aib]EFVNWLL[Aib]GHPSSGAPPPSC) [SEQ ID NO: 24, GIP derivative peptide] | 123.3% |  | 
glucose-dependent insulinotropic polypeptide [native GIP] |  | decreased | decreased
